According to publication PMC3234886 (Biochemistry, 2011):
One block for each molecule: values may come before it.

Assays:
[1] = target: His6-Rna14 (wild type) (Saccharomyces cerevisiae) (UniProt P25298); test: SEC
[2] = target: His6-Rna14 (wild type) (Saccharomyces cerevisiae) (UniProt P25298); test: cross-linking
[3] = target: His6-Rna14 (wild type) (Saccharomyces cerevisiae) (UniProt P25298); test: AUC
[4] = target: T1, His6-Rna14-ES (R562E/Y563S) (Saccharomyces cerevisiae, UniProt P25298 1-677, R562E | Y563S); test: cross-linking
T1 sequence (looked up): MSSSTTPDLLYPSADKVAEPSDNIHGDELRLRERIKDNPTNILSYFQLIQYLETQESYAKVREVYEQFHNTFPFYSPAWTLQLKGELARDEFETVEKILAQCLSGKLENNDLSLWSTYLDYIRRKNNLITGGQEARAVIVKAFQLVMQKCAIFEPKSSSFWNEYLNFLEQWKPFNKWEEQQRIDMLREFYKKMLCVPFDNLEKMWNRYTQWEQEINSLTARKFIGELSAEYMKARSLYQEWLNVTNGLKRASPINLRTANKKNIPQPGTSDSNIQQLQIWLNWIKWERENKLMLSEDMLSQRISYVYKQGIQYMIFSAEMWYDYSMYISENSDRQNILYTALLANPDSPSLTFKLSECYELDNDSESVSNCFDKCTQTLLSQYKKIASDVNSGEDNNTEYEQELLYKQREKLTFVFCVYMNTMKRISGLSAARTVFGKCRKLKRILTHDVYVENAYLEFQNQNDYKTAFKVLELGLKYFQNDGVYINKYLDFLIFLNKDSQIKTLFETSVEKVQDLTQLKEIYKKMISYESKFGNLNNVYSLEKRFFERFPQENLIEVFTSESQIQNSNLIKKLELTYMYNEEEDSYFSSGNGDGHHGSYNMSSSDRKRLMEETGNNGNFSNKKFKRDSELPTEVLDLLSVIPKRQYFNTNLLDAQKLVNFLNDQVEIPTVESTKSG

[5] = target: T1, His6-Rna14-ES (R562E/Y563S); test: SEC
cross-linking = target: the molecule itself; test: cross-linking
SEC = target: the molecule itself; test: SEC
AUC = target: the molecule itself; test: AUC
[6] = target: MBP-tagged Pcf11/Clp1 complex (yeast, UniProt P39081 1-626; Q08685 1-445); test: pull-down
MBP-tagged Pcf11/Clp1 complex, sequence (P39081 whole entry, chain 1 of 2): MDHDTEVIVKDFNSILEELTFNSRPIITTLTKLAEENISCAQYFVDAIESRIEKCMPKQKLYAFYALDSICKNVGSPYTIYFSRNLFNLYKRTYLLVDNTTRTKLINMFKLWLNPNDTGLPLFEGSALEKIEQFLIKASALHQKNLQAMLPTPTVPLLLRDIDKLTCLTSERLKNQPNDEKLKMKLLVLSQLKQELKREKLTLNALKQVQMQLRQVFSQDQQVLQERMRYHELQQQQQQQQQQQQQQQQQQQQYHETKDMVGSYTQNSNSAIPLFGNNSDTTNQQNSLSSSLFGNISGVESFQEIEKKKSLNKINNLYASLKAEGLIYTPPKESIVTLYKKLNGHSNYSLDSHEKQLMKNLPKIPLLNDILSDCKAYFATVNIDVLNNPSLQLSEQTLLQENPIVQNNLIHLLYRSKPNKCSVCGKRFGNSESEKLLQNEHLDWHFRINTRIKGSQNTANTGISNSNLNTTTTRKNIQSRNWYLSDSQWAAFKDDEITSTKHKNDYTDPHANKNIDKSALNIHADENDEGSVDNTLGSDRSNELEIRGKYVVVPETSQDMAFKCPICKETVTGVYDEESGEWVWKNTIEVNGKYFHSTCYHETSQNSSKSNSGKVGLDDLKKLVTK
MBP-tagged Pcf11/Clp1 complex, sequence (Q08685 whole entry, chain 2 of 2): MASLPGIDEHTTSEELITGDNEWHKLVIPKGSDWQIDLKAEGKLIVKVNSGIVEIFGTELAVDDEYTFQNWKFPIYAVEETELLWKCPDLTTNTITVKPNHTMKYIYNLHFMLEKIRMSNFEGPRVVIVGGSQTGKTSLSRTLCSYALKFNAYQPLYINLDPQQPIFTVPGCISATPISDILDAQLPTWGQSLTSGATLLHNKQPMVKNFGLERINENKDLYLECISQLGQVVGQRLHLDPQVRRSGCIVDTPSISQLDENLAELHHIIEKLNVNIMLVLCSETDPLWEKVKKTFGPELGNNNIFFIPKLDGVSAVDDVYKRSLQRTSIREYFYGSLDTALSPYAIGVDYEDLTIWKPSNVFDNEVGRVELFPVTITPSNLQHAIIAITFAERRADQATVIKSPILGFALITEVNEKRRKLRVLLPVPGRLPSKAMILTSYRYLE

ratio of Rna14 to Rna15 (intensity of stained bands, SEC peak fractions) [1]: 2.7 | stoichiometry N (Rna15 per Rna14 (2:2)) [2]: 1 | stoichiometry N (Rna15 per Rna14 (2:2)) [3]: 1
Molecule: Rna15 (untagged, co-expressed with Rna14) (from UniProt P25299 1-296) (natural protein)

stoichiometry N [4]: 1 Rna15 per Rna14-ES (1:1) | ratio of Rna14 to Rna15 (intensity of stained bands, SEC peak fractions) [5]: 2.5
B1: Rna15 (untagged, co-expressed with Rna14) (natural protein, Saccharomyces cerevisiae, UniProt P25299 1-296, looked up)
chain: MNRQSGVNAGVQNNPPSRVVYLGSIPYDQTEEQILDLCSNVGPVINLKMMFDPQTGRSKGYAFIEFRDLESSASAVRNLNGYQLGSRFLKCGYSSNSDISGVSQQQQQQYNNINGNNNNNGNNNNNSNGPDFQNSGNANFLSQKFPELPSGIDVNINMTTPAMMISSELAKKPKEVQLKFLQKFQEWTRAHPEDAVSLLELCPQLSFVTAELLLTNGICKVDDLIPLASRPQEEASATNNNSVNEVVDPAVLNKQKELLKQVLQLNDSQISILPDDERMAIWDLKQKALRGEFGAF

B2: His6-Rna14 (wild type) (natural protein, Saccharomyces cerevisiae, UniProt P25298 1-677, looked up)
chain: MSSSTTPDLLYPSADKVAEPSDNIHGDELRLRERIKDNPTNILSYFQLIQYLETQESYAKVREVYEQFHNTFPFYSPAWTLQLKGELARDEFETVEKILAQCLSGKLENNDLSLWSTYLDYIRRKNNLITGGQEARAVIVKAFQLVMQKCAIFEPKSSSFWNEYLNFLEQWKPFNKWEEQQRIDMLREFYKKMLCVPFDNLEKMWNRYTQWEQEINSLTARKFIGELSAEYMKARSLYQEWLNVTNGLKRASPINLRTANKKNIPQPGTSDSNIQQLQIWLNWIKWERENKLMLSEDMLSQRISYVYKQGIQYMIFSAEMWYDYSMYISENSDRQNILYTALLANPDSPSLTFKLSECYELDNDSESVSNCFDKCTQTLLSQYKKIASDVNSGEDNNTEYEQELLYKQREKLTFVFCVYMNTMKRISGLSAARTVFGKCRKLKRILTHDVYVENAYLEFQNQNDYKTAFKVLELGLKYFQNDGVYINKYLDFLIFLNKDSQIKTLFETSVEKVQDLTQLKEIYKKMISYESKFGNLNNVYSLEKRFFERFPQENLIEVFTSRYQIQNSNLIKKLELTYMYNEEEDSYFSSGNGDGHHGSYNMSSSDRKRLMEETGNNGNFSNKKFKRDSELPTEVLDLLSVIPKRQYFNTNLLDAQKLVNFLNDQVEIPTVESTKSG
stoichiometry N (cross-linking): 2 copies of Rna14 in the complex | stoichiometry N (SEC): 2

stoichiometry N [6]: 1 Clp1/Pcf11 sub-complex per CF IA
B3: wild-type Rna14/Rna15 complex (2:2 heterotetramer) (complex, Saccharomyces cerevisiae)
chain 1: MSSSTTPDLLYPSADKVAEPSDNIHGDELRLRERIKDNPTNILSYFQLIQYLETQESYAKVREVYEQFHNTFPFYSPAWTLQLKGELARDEFETVEKILAQCLSGKLENNDLSLWSTYLDYIRRKNNLITGGQEARAVIVKAFQLVMQKCAIFEPKSSSFWNEYLNFLEQWKPFNKWEEQQRIDMLREFYKKMLCVPFDNLEKMWNRYTQWEQEINSLTARKFIGELSAEYMKARSLYQEWLNVTNGLKRASPINLRTANKKNIPQPGTSDSNIQQLQIWLNWIKWERENKLMLSEDMLSQRISYVYKQGIQYMIFSAEMWYDYSMYISENSDRQNILYTALLANPDSPSLTFKLSECYELDNDSESVSNCFDKCTQTLLSQYKKIASDVNSGEDNNTEYEQELLYKQREKLTFVFCVYMNTMKRISGLSAARTVFGKCRKLKRILTHDVYVENAYLEFQNQNDYKTAFKVLELGLKYFQNDGVYINKYLDFLIFLNKDSQIKTLFETSVEKVQDLTQLKEIYKKMISYESKFGNLNNVYSLEKRFFERFPQENLIEVFTSRYQIQNSNLIKKLELTYMYNEEEDSYFSSGNGDGHHGSYNMSSSDRKRLMEETGNNGNFSNKKFKRDSELPTEVLDLLSVIPKRQYFNTNLLDAQKLVNFLNDQVEIPTVESTKSG
chain 2: MNRQSGVNAGVQNNPPSRVVYLGSIPYDQTEEQILDLCSNVGPVINLKMMFDPQTGRSKGYAFIEFRDLESSASAVRNLNGYQLGSRFLKCGYSSNSDISGVSQQQQQQYNNINGNNNNNGNNNNNSNGPDFQNSGNANFLSQKFPELPSGIDVNINMTTPAMMISSELAKKPKEVQLKFLQKFQEWTRAHPEDAVSLLELCPQLSFVTAELLLTNGICKVDDLIPLASRPQEEASATNNNSVNEVVDPAVLNKQKELLKQVLQLNDSQISILPDDERMAIWDLKQKALRGEFGAF
Kd (AUC): 45 µM
